From patent US10947272B2, “BACE1 inhibitor peptides” (HOFFMANN-LA ROCHE INC., priority 2015, dated 2021) come the findings set out here.

Where “and” joins values, the source holds several entries; their conditions need not be identical. Identical values can stand only once. Numbered stars: 1 amine (or outer) side, 2 acyl side, 3 side chain; on linkers, the order of the positions; unused ones are H or OH. Square brackets hold non-standard residues; d marks the D form. Primed or numbered codes have the meaning given here. Ends that are not written are not given here. * marks the point of attachment. PEG(4) = non-peptide PEG linker joining two peptide parts; MetSta(3S,4S) = CSCC[C@H](N[*:1])[C@@H](O)CC(=O)[*:2]; MetSta = statine analogue named MetSta in the name; Biotin = O=C1N[C@H]2[C@H](CS[C@H]2CCCCC(=O)*)N1; Sta = CC(C)C[C@H](N)[C@@H](O)CC(=O)O; PEG4 = NCCOCCOCCOCCOCCC(=O)O; PEG3 = NCCOCCOCCOCCC(=O)O; PEG8′ = not defined here; AEEA = NCCOCCOCC(=O)O

The target of this assay is BACE1 (Asp2, β-secretase, Memapsin-2) in HEK293 cells stably expressing human APP695 (UniProt P56817 46-501, limits assumed). The experiment in a line: cell-based or functional assay.
BACE1 (Asp2, β-secretase, Memapsin-2) in HEK293 cells stably expressing human APP695, sequence (P56817 46-501 limits assumed): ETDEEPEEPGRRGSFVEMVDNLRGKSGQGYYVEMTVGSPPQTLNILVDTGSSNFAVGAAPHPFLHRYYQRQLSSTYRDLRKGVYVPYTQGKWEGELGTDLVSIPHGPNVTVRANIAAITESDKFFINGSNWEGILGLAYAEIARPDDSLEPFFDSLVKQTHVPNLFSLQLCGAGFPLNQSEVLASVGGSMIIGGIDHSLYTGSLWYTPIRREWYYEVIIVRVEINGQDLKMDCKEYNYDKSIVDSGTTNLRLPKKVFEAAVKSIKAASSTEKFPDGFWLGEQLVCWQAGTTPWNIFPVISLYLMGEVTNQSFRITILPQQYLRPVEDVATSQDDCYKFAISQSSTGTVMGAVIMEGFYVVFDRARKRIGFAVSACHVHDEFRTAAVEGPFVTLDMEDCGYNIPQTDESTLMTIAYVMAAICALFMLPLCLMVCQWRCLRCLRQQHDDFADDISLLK

H-YPYF[dK]PL[PEG4]EVN[Sta]VAE[dP]-NH2 (numbers in words are those of the source; also: TFA salt (2 TFA)) [H-Tyr-Pro-Tyr-Phe-DLys-Pro-Leu-PEG(4)-Glu-Val-Asn-Sta-Val-Ala-Glu-DPro-NH2 × 2TFA]: the “IC 50, cellular Aβ-lowering assay (Aβ40 in supernatant of HEK293 cells expressing human APP695)” value (“IC 50, cellular Aβ-lowering assay” below) is over 40000 nM.

Turning to YPYFIP[dK][PEG(4)]EVN[MetSta(3S,4S)]VAE[dP]-NH2 (numbers in words are those of the source; also: TFA salt (2 TFA)) [Tyr-Pro-Tyr-Phe-Ile-Pro-DLys-PEG(4)-Glu-Val-Asn-MetSta-Val-Ala-Glu-DPro-NH2 × 2TFA], the “IC 50, cellular Aβ-lowering assay” value was determined as 1010 nM.

Regarding TPKPAQGG[dK]GEVN[Sta]VAE[dP]-NH2 (also: TFA salt (3 TFA)) [TPKPAQG-GkG-EVN-Sta-VAEp-NH2 × 3TFA], the “IC 50, cellular Aβ-lowering assay” value is over 40000 nM.

On to YPYFIP[dK]G[dK]GEVN[MetSta(3S,4S)]VAEP-NH2 (also: TFA salt (3 TFA)) [Tyr-Pro-Tyr-Phe-Ile-Pro-DLys-Gly-DLys-Gly-Glu-Val-Asn-MetSta-Val-Ala-Glu-Pro-NH2 × 3TFA], for which the “IC 50, cellular Aβ-lowering assay” value came out at 15 nM.

Take YPYFIPLG[dK]GEVN[MetSta(3S,4S)]VAEP-NH2 (also: 2TFA salt) [Tyr-Pro-Tyr-Phe-Ile-Pro-Leu-Gly-DLys-Gly-Glu-Val-Asn-MetSta-Val-Ala-Glu-Pro-NH2 × 2TFA]: the “IC 50, cellular Aβ-lowering assay” value is 470 nM.

For YPYFIPL[PEG4]EVN[Sta]VAE[dP]-NH2 (also: TFA salt) [Tyr-Pro-Tyr-Phe-Ile-Pro-Leu-PEG(4)-Glu-Val-Asn-Sta-Val-Ala-Glu-DPro-NH2 × TFA], the “IC 50, cellular Aβ-lowering assay” value is 2.7 nM.

As for YPYFIP[dK]G[dK]GEVN[Sta]VAE[dP]-NH2 (also: TFA salt (3 TFA)) [Tyr-Pro-Tyr-Phe-Ile-Pro-DLys-Gly-DLys-Gly-Glu-Val-Asn-Sta-Val-Ala-Glu-DPro-NH2 × 3TFA], the “IC 50, cellular Aβ-lowering assay” value came out at 19 nM.

Regarding YPYFIPLGGGEVN[MetSta]VAEP-NH2 (also: TFA salt) [Tyr-Pro-Tyr-Phe-Ile-Pro-Leu-Gly-Gly-Gly-Glu-Val-Asn-MetSta-Val-Ala-Glu-Pro-NH2 × TFA], the “IC 50, cellular Aβ-lowering assay” value stood at 1340 nM.

Consider H-Y[dK]YFIPLG[dK]GEVN[Sta]VAE[dP]-NH2 (also: TFA salt) [H-Tyr-DLys-Tyr-Phe-Ile-Pro-Leu-Gly-DLys-Gly-Glu-Val-Asn-Sta-Val-Ala-Glu-DPro-NH2], for which the “IC 50, cellular Aβ-lowering assay” value is over 40000 nM.

H-GGGYPYFIP[dK]G[dK]GEVN[Sta]VAE[dP]-NH2 (also: TFA salt) [H-Gly-Gly-Gly-Tyr-Pro-Tyr-Phe-Ile-Pro-DLys-Gly-DLys-Gly-Glu-Val-Asn-Sta-Val-Ala-Glu-DPro-NH2 × 3TFA]: the “IC 50, cellular Aβ-lowering assay” value was 6.4 nM.

Consider YPYFIP[dK]G[dK]GEVN[MetSta(3S,4S)]VAE[dF]-NH2 (also: TFA salt (3 TFA)) [Tyr-Pro-Tyr-Phe-Ile-Pro-DLys-Gly-DLys-Gly-Glu-Val-Asn-MetSta-Val-Ala-Glu-DPhe-NH2 × 3TFA], for which the “IC 50, cellular Aβ-lowering assay” value is 190 nM.

As for YPYFIPLG[dK]GEVN[Sta]VAE[dP]-NH2 (also: 2TFA salt) [Tyr-Pro-Tyr-Phe-Ile-Pro-Leu-Gly-DLys-Gly-Glu-Val-Asn-Sta-Val-Ala-Glu-DPro-NH2 × 2TFA], the “IC 50, cellular Aβ-lowering assay” value turned out to be 94 nM.

For the molecule YPYFKPAG[dK]GEVN[Sta]VAE[dP]-NH2 (also: 3TFA salt) [Tyr-Pro-Tyr-Phe-Lys-Pro-Ala-Gly-DLys-Gly-Glu-Val-Asn-Sta-Val-Ala-Glu-DPro-NH2 × 3TFA], the “IC 50, cellular Aβ-lowering assay” value was 71 nM and 46 nM.

B1: Tyr-Pro-Tyr-Phe-Ile-Pro-DLys-PEG(4)-Glu-Val-Asn-Leu*Ala-Ala-Glu-DPro-NH2 × 2TFA (peptide)
peptide: YPYFIP[dK][PEG(4)]EVNLAAE[dP]-NH2
modifications: numbers in words are those of the source; also: Leu11-Ala12 as Leu*Ala hydroxyethylene dipeptide isostere, 2TFA salt
B1: the “IC 50, cellular Aβ-lowering assay” value turned out to be 15 nM.

Regarding H-YPYF[dK]L[PEG4]EVN[Sta]VAE[dP]-NH2 (also: TFA salt) [H-Tyr-Pro-Tyr-Phe-DLys-Leu-PEG(4)-Glu-Val-Asn-Sta-Val-Ala-Glu-DPro-NH2 × 3TFA], the “IC 50, cellular Aβ-lowering assay” value is over 40000 nM.

Take H-YPKFIPL[PEG4]EVN[Sta]VAE[dP]-NH2 (numbers in words are those of the source; also: 3TFA salt) [1 H-Tyr-Pro-Lys-Phe-Ile-Pro-Leu-PEG(4)-Glu-Val-Asn-Sta-Val-Ala-Glu-DPro-NH2 × 3TFA]: the “IC 50, cellular Aβ-lowering assay” value worked out at 52 nM.

Turning to H-[dY]PYFIP[dK]G[dK]GEVN[Sta]VAE[dP]-NH2 (also: TFA salt (3 TFA)) [H-DTyr-Pro-Tyr-Phe-Ile-Pro-DLys-Gly-DLys-Gly-Glu-Val-Asn-Sta-Val-Ala-Glu-DPro-NH2 × 3TFA], the “IC 50, cellular Aβ-lowering assay” value is 63 nM.

In the case of YPYFIPL[PEG4]EVN[MetSta(3S,4S)]VAE[dF]-NH2 (also: TFA salt) [Tyr-Pro-Tyr-Phe-Ile-Pro-Leu-PEG(4)-Glu-Val-Asn-MetSta-Val-Ala-Glu-DPhe-NH2 × TFA], the “IC 50, cellular Aβ-lowering assay” value is 430 nM.

For Ac-[dY]PYFIPLG[dK]GEVN[Sta]VAE[dP]-NH2 (also: TFA salt) [Ac-DTyr-Pro-Tyr-Phe-Ile-Pro-Leu-Gly-DLys-Gly-Glu-Val-Asn-Sta-Val-Ala-Glu-DPro-NH2 × TFA], the “IC 50, cellular Aβ-lowering assay” value came out at 110 nM.

B2: Tyr-Pro-Tyr-Phe-DLys-Leu-Gly-DLys-Gly-Glu-Val-Asn-Leu*Ala-Ala-Glu-DPro-NH2 × 3TFA (peptide)
peptide: YPYF[dK]LG[dK]GEVNLAAE[dP]-NH2
modifications: also: Leu13-Ala14 hydroxyethylene dipeptide isostere (Leu*Ala) in place of the amide bond, 3TFA salt
B2: the “IC 50, cellular Aβ-lowering assay” value is 34 nM.

With GARFIPAG[dK]GEVN[Sta]VAE[dP]-NH2 (also: TFA salt (3 TFA)) [Gly-Ala-Arg-Phe-Ile-Pro-Ala-Gly-DLys-Gly-Glu-Val-Asn-Sta-Val-Ala-Glu-DPro-NH2 × 3TFA], the “IC 50, cellular Aβ-lowering assay” value worked out at 420 nM.

With YPKFISAG[dK]GEVN[Sta]VAE[dP]-NH2 (also: 3TFA salt) [YPKFISA-GkG-EVN-Sta-VAEp-NH2 × 3TFA], the “IC 50, cellular Aβ-lowering assay” value was 750 nM.

Consider YPYF[dK]PLG[dK]GEVN[Sta]VAE[dP]-NH2 (also: TFA salt (3 TFA)) [Tyr-Pro-Tyr-Phe-DLys-Pro-Leu-Gly-DLys-Gly-Glu-Val-Asn-Sta-Val-Ala-Glu-DPro-NH2 × 3TFA], for which the “IC 50, cellular Aβ-lowering assay” value is over 40000 nM.

Turning to H-YP[dK]FIPLG[dK]GEVN[Sta]VAE[dP]-NH2 (also: TFA salt) [H-Tyr-Pro-DLys-Phe-Ile-Pro-Leu-Gly-DLys-Gly-Glu-Val-Asn-Sta-Val-Ala-Glu-DPro-NH2], the “IC 50, cellular Aβ-lowering assay” value is 29300 nM.

On to [dK]PYFIPLG[dK]GEVN[Sta]VAE[dP]-NH2 (also: TFA salt (3 TFA)) [DLys-Pro-Tyr-Phe-Ile-Pro-Leu-Gly-DLys-Gly-Glu-Val-Asn-Sta-Val-Ala-Glu-DPro-NH2 × 3TFA], for which the “IC 50, cellular Aβ-lowering assay” value was 2930 nM.

With {Biotin-AEEA}-C[PEG8′]YPYFIP[dK]G[dK]GEVN[Sta]VAE[dP]-NH2 (also: TFA salt) [Biotin-PEG2-Cys-PEG8-Tyr-Pro-Tyr-Phe-Ile-Pro-DLys-Gly-DLys-Gly-Glu-Val-Asn-Sta-Val-Ala-Glu-DPro-NH2], the “IC 50, cellular Aβ-lowering assay” value was 18 nM.

For the molecule YPYFI[dK]LG[dK]GEVN[Sta]VAE[dP]-NH2 (also: TFA salt (3 TFA)) [Tyr-Pro-Tyr-Phe-Ile-DLys-Leu-Gly-DLys-Gly-Glu-Val-Asn-Sta-Val-Ala-Glu-DPro-NH2 × 3TFA], the “IC 50, cellular Aβ-lowering assay” value was over 40000 nM.

YPYFIPLGGGEVN[Sta]VAE[dP]-NH2 (also: TFA salt) [Tyr-Pro-Tyr-Phe-Ile-Pro-Leu-Gly-Gly-Gly-Glu-Val-Asn-Sta-Val-Ala-Glu-DPro-NH2 × TFA]: the “IC 50, cellular Aβ-lowering assay” value amounted to 420 nM.

On to YPKFIPLG[dK]GEVN[MetSta(3S,4S)]VAEP-NH2 (also: TFA salt (3 TFA)) [Tyr-Pro-Lys-Phe-Ile-Pro-Leu-Gly-DLys-Gly-Glu-Val-Asn-MetSta-Val-Ala-Glu-Pro-NH2 × 3TFA], for which the “IC 50, cellular Aβ-lowering assay” value amounted to 760 nM.

On to H-[dY]PYFIPLG[dK]GEVN[Sta]VAE[dP]-NH2 (also: TFA salt (2 TFA)) [H-DTyr-Pro-Tyr-Phe-Ile-Pro-Leu-Gly-DLys-Gly-Glu-Val-Asn-Sta-Val-Ala-Glu-DPro-NH2 × 2TFA], for which the “IC 50, cellular Aβ-lowering assay” value was 810 nM.

Take {Biotin-AEEA}-C[PEG3]YPYFIP[dK]G[dK]GEVN[Sta]VAE[dP]-NH2 (also: TFA salt) [Biotin-PEG2-Cys-PEG3-Tyr-Pro-Tyr-Phe-Ile-Pro-DLys-Gly-DLys-Gly-Glu-Val-Asn-Sta-Val-Ala-Glu-DPro-NH2]: the “IC 50, cellular Aβ-lowering assay” value is 26 nM.

YPKFIPLG[dK]GEVN[Sta]VAE[dP]-NH2 (also: TFA salt (3 TFA)) [Tyr-Pro-Lys-Phe-Ile-Pro-Leu-Gly-DLys-Gly-Glu-Val-Asn-Sta-Val-Ala-Glu-DPro-NH2 × 3TFA]: the “IC 50, cellular Aβ-lowering assay” value amounted to 280 nM.

For H-YPYFIP[dK][PEG4]EVN[Sta]VAE[dP]-NH2 (numbers in words are those of the source; also: TFA salt (2 TFA)) [H-Tyr-Pro-Tyr-Phe-Ile-Pro-DLys-PEG(4)-Glu-Val-Asn-Sta-Val-Ala-Glu-DPro-NH2 × 2TFA], the “IC 50, cellular Aβ-lowering assay” value was 45 nM.

Turning to YPYFIPL[PEG4]EVN[MetSta(3S,4S)]VAEP-NH2 (also: TFA salt) [Tyr-Pro-Tyr-Phe-Ile-Pro-Leu-PEG(4)-Glu-Val-Asn-MetSta-Val-Ala-Glu-Pro-NH2 × TFA], the “IC 50, cellular Aβ-lowering assay” value was determined as 17 nM.
